Measured values published in paper PMC8978092 (Cell, 2022).

Assays:
crystal structure = target: the molecule itself; experiment: crystal structure
cryo-EM structure = target: the molecule itself; experiment: cryo-EM structure

B1: Enterococcus pore-forming toxin 4 (Epx4), residues 32-335, C-terminal His6 (natural protein)
chain: SEDNIIGTTTQEIDEHGNVKTIITVKNQQIESYTSTDSGTAKNRSTLTVNANFLNDKYSNELTTILSLNGFIPSGRKFIFPKNNTLKGEMLWPQRYSTAVYNIPLDKSVKITNSTPDNTIRSKEVSNSITYGIGGGIKMEGKQPGANLDANAAITKTISYQQPDYETAKTTSTVTGVNWNTNFTETRDGYTRNSWNPVYGNQMFMYGRYTSNIRNNFTPDYQLSSLITSGFSPSYGLVLRAPKDVKKSRIKVVFARRSETYQQNWDGLNWWGRNFYDTKNPDSLSKVTLTFELDWQNHRVTFIELEHHHHHH
stoichiometry N (crystal structure): 8

B2: Enterococcus pore-forming toxin 1 (Epx1), residues 24-345, C-terminal His6 (natural protein)
chain: DVQVFADNPVLGTEVTFEKDENGRIVKIISKNQYRITIYNSVDAGDTPNDASVSLDVDFIDDKNSGEMGAVASINTFIPSGLRYVEGYKYKGVTNPIYKNLSAGMLWPKKYRVEVVNIPIDQATKIITATPNNNIKEKQVSDTISYGFGGSVSADGKKPGGSIEANLAYTKTTTYDQPDYETSQIKKTTKEAVWDTSFVETRDGYTPNSWNPVYGNQMFMRGRYSNVSPIDNIKKGGEVSSLISGGFSPKMGVVLASPNGTKKSQFVVRVSRMSDMYIMRWSGTEWGGENEINQNVPKEYNALMYEDVKFEIDWEQRTVRTILEHHHHHH
stoichiometry N (cryo-EM structure): 8
